Test results reported in paper PMC5597230, “Identification and characterization of preferred DNA-binding sites for the Thermus thermophilus transcriptional regulator FadR”.

T1: FadR (Thermus thermophilus HB8, UniProt Q5SM42 1-205)
T1 sequence: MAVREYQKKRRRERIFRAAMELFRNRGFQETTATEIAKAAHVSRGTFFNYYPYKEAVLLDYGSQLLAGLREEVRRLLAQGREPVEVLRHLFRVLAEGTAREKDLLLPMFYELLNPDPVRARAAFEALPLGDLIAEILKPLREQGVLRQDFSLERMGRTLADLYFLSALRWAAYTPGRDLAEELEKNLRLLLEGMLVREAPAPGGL

B1: ST2_FadR_TTHA1144 (dsDNA)
DNA 1: AGGAATTCGTGCAGAGGTGAATTTAGACTCGGTCAAATTACCATCCCTCCAGAAGCTTGG
DNA 2: CCAAGCTTCTGGAGGGATGGTAATTTGACCGAGTCTAAATTCACCTCTGCACGAATTCCT
B2: ST2_FadR_TTHA1118 (dsDNA)
DNA 1: AGGAATTCGTGCAGAGGTGAATTTATACTCGGTAAAATTACCATCCCTCCAGAAGCTTGG
DNA 2: CCAAGCTTCTGGAGGGATGGTAATTTTACCGAGTATAAATTCACCTCTGCACGAATTCCT
B3: ST2_FadR_TTHA0604 (dsDNA)
DNA 1: AGGAATTCGTGCAGAGGTGAATTTATACTGGGTCTAATTACCATCCCTCCAGAAGCTTGG
DNA 2: CCAAGCTTCTGGAGGGATGGTAATTAGACCCAGTATAAATTCACCTCTGCACGAATTCCT
B4: ST2_FadR_TTHA0103 (dsDNA)
DNA 1: AGGAATTCGTGCAGAGGTGAATTTGGACCTGGTAAAATTACCATCCCTCCAGAAGCTTGG
DNA 2: CCAAGCTTCTGGAGGGATGGTAATTTTACCAGGTCCAAATTCACCTCTGCACGAATTCCT
B5: ST2_FadR_TTHA0846 (dsDNA)
DNA 1: AGGAATTCGTGCAGAGGTGAATTTATACTCAGTACATTTACCATCCCTCCAGAAGCTTGG
DNA 2: CCAAGCTTCTGGAGGGATGGTAAATGTACTGAGTATAAATTCACCTCTGCACGAATTCCT
B6: ST2_FadR_TTHA0402 (dsDNA)
DNA 1: AGGAATTCGTGCAGAGGTGAATTTGAACCCAGTATAATTACCATCCCTCCAGAAGCTTGG
DNA 2: CCAAGCTTCTGGAGGGATGGTAATTATACTGGGTTCAAATTCACCTCTGCACGAATTCCT
B7: ST2_FadR_TTHA0390 (dsDNA)
DNA 1: AGGAATTCGTGCAGAGGTGAATTTGAACCGGGTATAATTACCATCCCTCCAGAAGCTTGG
DNA 2: CCAAGCTTCTGGAGGGATGGTAATTATACCCGGTTCAAATTCACCTCTGCACGAATTCCT
B8: ST2_FadR_R5_wt (dsDNA)
DNA 1: AGGAATTCGTGCAGAGGTGAATTTGGACTTAGTCCAATTACCATCCCTCCAGAAGCTTGG
DNA 2: CCAAGCTTCTGGAGGGATGGTAATTGGACTAAGTCCAAATTCACCTCTGCACGAATTCCT
B9: ST2_FadR_R5_m4 (dsDNA)
DNA 1: AGGAATTCGTGCAGAGGTGAATTTGCACTTAGTCCAATTACCATCCCTCCAGAAGCTTGG
DNA 2: CCAAGCTTCTGGAGGGATGGTAATTGGACTAAGTGCAAATTCACCTCTGCACGAATTCCT
B10: ST2_FadR_R5_m3 (dsDNA)
DNA 1: AGGAATTCGTGCAGAGGTGAATTTCGACTTAGTCCAATTACCATCCCTCCAGAAGCTTGG
DNA 2: CCAAGCTTCTGGAGGGATGGTAATTGGACTAAGTCGAAATTCACCTCTGCACGAATTCCT
B11: ST2_FadR_R5_m1 (dsDNA)
DNA 1: AGGAATTCGTGCAGAGGTGAATGTGGACTTAGTCCAATTACCATCCCTCCAGAAGCTTGG
DNA 2: CCAAGCTTCTGGAGGGATGGTAATTGGACTAAGTCCACATTCACCTCTGCACGAATTCCT
B12: ST2_FadR_R5_m5 (dsDNA)
DNA 1: AGGAATTCGTGCAGAGGTGAATTTGGGCTTAGTCCAATTACCATCCCTCCAGAAGCTTGG
DNA 2: CCAAGCTTCTGGAGGGATGGTAATTGGACTAAGCCCAAATTCACCTCTGCACGAATTCCT
B13: ST2_FadR_R5_m7 (dsDNA)
DNA 1: AGGAATTCGTGCAGAGGTGAATTTGGACATAGTCCAATTACCATCCCTCCAGAAGCTTGG
DNA 2: CCAAGCTTCTGGAGGGATGGTAATTGGACTATGTCCAAATTCACCTCTGCACGAATTCCT
B14: ST2_FadR_TTHB017 (dsDNA)
DNA 1: AGGAATTCGTGCAGAGGTGAATTTATACTGGGTCCAATTACCATCCCTCCAGAAGCTTGG
DNA 2: CCAAGCTTCTGGAGGGATGGTAATTGGACCCAGTATAAATTCACCTCTGCACGAATTCCT
B15: ST2_FadR_TTHA1463 (dsDNA)
DNA 1: AGGAATTCGTGCAGAGGTGAATTTGAACCCGGTACAATTACCATCCCTCCAGAAGCTTGG
DNA 2: CCAAGCTTCTGGAGGGATGGTAATTGTACCGGGTTCAAATTCACCTCTGCACGAATTCCT

Each binder was assayed against T1, FadR (assay: EMSA; Kd in figure only; all promoter probes 0.053-11 nM; EMSA as in previous SbtR study (buffer, salt, pH, temperature not given in the material); FadR titrations up to 600 nM, IRD700-labeled probes). Details: protein: recombinant; tags: none stated (pET-11a); chain copies: 2; label: IRD700.
B1: binds.
B2: binds.
B3: binds.
B4: binds.
B5: binds.
B6: binds.
B7: binds.

The binders below were run against T1, FadR (assay: EMSA; EMSA as in previous SbtR study (buffer, salt, pH, temperature not given in the material); FadR titrations up to 600 nM, IRD700-labeled probes). Details: protein: recombinant; tags: none stated (pET-11a); chain copies: 2; label: IRD700.
Work on B8 yielded a Kd of 0.17 nM.

What follows are binders tested against T1, FadR (assay: EMSA; range stated for m1,m3,m4,m5,m7; exact value only in figure; EMSA as in previous SbtR study (buffer, salt, pH, temperature not given in the material); FadR titrations up to 600 nM, IRD700-labeled probes). Details: protein: recombinant; tags: none stated (pET-11a); chain copies: 2; label: IRD700.
With B9 the Kd was about 4.69 nM.
With B10 the Kd was about 4.69 nM.
For B11, the Kd was about 4.69 nM.
B12 was tested, and the Kd was about 4.69 nM.
With B13 the Kd was about 4.69 nM.

What follows are binders tested against T1, FadR (assay: EMSA; very low KD stated; value in figure only; EMSA as in previous SbtR study (buffer, salt, pH, temperature not given in the material); FadR titrations up to 600 nM, IRD700-labeled probes). Details: protein: recombinant; tags: none stated (pET-11a); chain copies: 2; label: IRD700.
B14: binds.
B15: binds.
